We go through 14 molecules from patent US20260226126A1 (ANWITA BIOSCIENCES, published 2026).

Residue numbers refer to the chain shown, from its start. Numbers in names are those of the source.

The target of one assay is T1, CD122 (human, UniProt P14784 27-239).
T1 construct: also called IL-2Rβ; hIL-2 receptor
T1 sequence: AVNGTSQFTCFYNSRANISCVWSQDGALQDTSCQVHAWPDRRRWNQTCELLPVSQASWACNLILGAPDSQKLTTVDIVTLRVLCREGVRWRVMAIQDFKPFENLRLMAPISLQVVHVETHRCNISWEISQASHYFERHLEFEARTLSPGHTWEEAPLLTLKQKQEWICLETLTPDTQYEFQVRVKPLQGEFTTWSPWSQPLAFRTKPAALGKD
The assay is described as follows: BLI (OCTET RED96); receptor loaded on biosensor, IL-2 mutein in solution at 10 to 2,000 nM. How it is done: (§1) CD122 and AVITAG CD122/CD132 heterodimer were purchased from ACROBIOSYSTEMS, Inc. The protein samples were diluted in the OCTET® kinetic buffer. […] The association and dissociation sensorgram was fitted by global or local fitting using the OCTET® Data Analysis HT software.

Assay [1] deals with T2, AVITAG CD122/CD132 heterodimer (human, UniProt P14784 27-239; P31785 23-262).
T2 construct: also called IL-2Rβ/γ
T2 sequence 1: T1 sequence
T2 sequence 2: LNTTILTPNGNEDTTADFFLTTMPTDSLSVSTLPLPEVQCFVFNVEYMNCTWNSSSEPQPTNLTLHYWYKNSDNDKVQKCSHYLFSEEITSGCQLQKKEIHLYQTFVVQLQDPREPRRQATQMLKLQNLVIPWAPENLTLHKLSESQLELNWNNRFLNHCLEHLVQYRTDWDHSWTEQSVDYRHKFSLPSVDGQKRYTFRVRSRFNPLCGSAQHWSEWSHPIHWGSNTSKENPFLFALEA
The assay is described as above. The procedure:
as §1

The next assay addresses T3, His-tagged human PD-1 (human, UniProt Q15116 25-167, limits assumed).
T3 construct: also called His-tagged human PD-1 protein
The assay is described as follows: BLI (OCTET RED96); fusion protein A1 captured on anti-human-Fc (AHC) biosensor, serially diluted His-tagged human PD-1 in solution. An excerpt:
(§2) Anti-PD-1/IL-2 fusion protein A1 was made by co-expression of SEQ ID NOs: 160 and 161 in CHO cells. OCTET® RED96 was used to study the interaction between anti-PD-1/IL-2 fusion protein A1 and human PD-1 or IL-2 receptors. For the binding study of the human PD-1, anti-human-Fc (AHC) biosensors were used to capture anti-PD-1/IL-2 fusion protein A1. The coated biosensors were associated with serially diluted His-tagged human PD-1 protein at predetermined concentrations. For the binding study of human IL-2 receptors, anti-penta-HIS (HIS1K) biosensors were used to capture human IL-2Rα or human IL-2Rβγ (His) proteins. The coated biosensors were associated with serially diluted anti-PD-1/IL-2 fusion protein A1 at predetermined concentrations.

Assay [2] deals with T4, His-tagged IL-2Rα (CD25) protein (human, UniProt P01589 22-240).
T4 construct: also called Human IL-2Rα
T4 sequence: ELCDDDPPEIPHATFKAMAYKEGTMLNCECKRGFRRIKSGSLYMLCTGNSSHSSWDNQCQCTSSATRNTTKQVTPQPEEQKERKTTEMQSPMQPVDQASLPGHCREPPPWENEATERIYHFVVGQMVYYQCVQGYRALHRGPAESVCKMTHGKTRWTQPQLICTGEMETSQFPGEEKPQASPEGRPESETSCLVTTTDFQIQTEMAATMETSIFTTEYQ
The assay is described as follows: BLI (OCTET RED96); His-tagged receptor captured on anti-penta-HIS (HIS1K) biosensor, serially diluted fusion protein A1 in solution.
From the text: as §2

Assay [3] addresses T5, His-tagged & Twin Strep-tagged human IL-2Rβ & IL-2Rγ heterodimer protein (human, UniProt P14784 27-239; P31785 23-262).
T5 construct: also called Human IL-2Rβγ; human IL-2Rβγ (His)
T5 sequence 1: T1 sequence
T5 sequence 2: T2 sequence 2
The assay is described as follows: BLI (OCTET RED96); His-tagged receptor heterodimer captured on anti-penta-HIS (HIS1K) biosensor, serially diluted fusion protein A1 in solution.
From the text: as §2

T3 sequence (Q15116 25-167 limits assumed): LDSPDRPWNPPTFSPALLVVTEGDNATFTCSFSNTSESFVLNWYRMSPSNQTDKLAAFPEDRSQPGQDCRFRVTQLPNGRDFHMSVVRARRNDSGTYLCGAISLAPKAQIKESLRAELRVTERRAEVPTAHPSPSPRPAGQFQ

B1: IL-2-IL-15 Chimera 2 (T3A, C125S) (ligand)
chain: APASSSTKKTQLQLEHLLLDLQMILNGIQSMEIDATTFKFYMPKKATELKHLQCLEEELKPLEEVLNLAQSKNFHLRPRDLISNINVIVLELKGSETTFMCEYADETATIVEFLNRWITFSQSIISTLT
notes: hIL-2 with N29-L40 replaced by an IL-15 hinge fragment-containing peptide; no fusion partner is stated
As usually defined, the Kd is the constant that tells how readily two partners part at equilibrium. Higher therefore signals a looser complex. With B1, the Kd worked out at 104 nM with CD122 and 11 nM in assay [1].

B2: IL-2-IL-15 Chimera 46 (T3A, C125S, Q126E) (ligand)
chain: B1 chain with Q122E
notes: no fusion partner is stated
Consider B2, for which, in assay [1], the Kd is 219 nM. In other words, the sub-micromolar range.

B3: IL-2-IL-15 Chimera 58 (T3A, L18C, Q126E) (ligand)
chain: B1 chain with L18C, S121C, Q122E
notes: no fusion partner is stated
B3: the Kd in the assay with CD122 was determined as 188 nM; in assay [1] it was 229 nM.

B4: IL-2-IL-15 Chimera 64 (T3A, L18C, Q126S) (ligand)
chain: B1 chain with L18C, S121C, Q122S
notes: no fusion partner is stated
As to B4, in assay [1], the Kd was found to be 382 nM.

B5: IL-2-IL-15 Chimera 54 (T3A, C125S, Q126T) (ligand)
chain: B1 chain with Q122T
notes: no fusion partner is stated
As to B5, the dissociation constant Kd with CD122 was determined as 650 nM; in assay [1], 30 nM.

B6: IL-2-IL-15 Chimera 56 (T3A, C125S, S130R) (ligand)
chain: B1 chain with S126R
notes: no fusion partner is stated
For B6, the figures for the dissociation constant (Kd) (in the assay with CD122; in assay [1]) were 808 nM and 12 nM, respectively.

B7: IL-2-IL-15 Chimera 42 (E15K, N88A, C125S) (ligand)
chain: B1 chain with A3T, E15K, N84A
notes: no fusion partner is stated
Regarding B7, the equilibrium dissociation constant (Kd) in assay [1] worked out at 53 nM.

B8: IL-2-IL-15 Chimera 69 (T3A, L18S, C125S, Q126E) (ligand)
chain: B1 chain with L18S, Q122E
notes: no fusion partner is stated
In assay [1], B8 displayed an equilibrium dissociation constant (Kd) of 322 nM.

B9: IL-2-IL-15 Chimera 29 (I92A, C125S) (ligand)
chain: B1 chain with A3T, I88A
notes: no fusion partner is stated
For the molecule B9, in assay [1], binding was put at a Kd of 3.5 nM.

B10: IL-2-IL-15 Chimera 68 (T3A, C125S, Q126T, S130R) (ligand)
chain: B1 chain with Q122T, S126R
notes: no fusion partner is stated
For B10, the equilibrium dissociation constant (Kd) came to 466 nM with CD122 and 32 nM in assay [1].

B11: IL-2-IL-15 Chimera 44 (T3A, L18C) (ligand)
chain: B1 chain with L18C, S121C
notes: no fusion partner is stated
In assay [1], B11 gave a Kd of 12 nM.

B12: hIL-2 Mutein (T3A, F42A, Y45A, L72G, C125S) (ligand)
chain: APASSSTKKTQLQLEHLLLDLQMILNGINNYKNPKLTRMLTAKFAMPKKATELKHLQCLEEELKPLEEVLNGAQSKNFHLRPRDLISNINVIVLELKGSETTFMCEYADETATIVEFLNRWITFSQSIISTLT
notes: no fusion partner is stated
Turning to B12, the Kd with CD122 was 550 nM; in assay [1], 6.8 nM.

B13: hIL-2 Mutein (T3A, R38E, F42A, K76E, C125S) (ligand)
chain: B12 chain with R38E, A45Y, G72L, K76E
notes: no fusion partner is stated
In the case of B13, in assay [1], the Kd was 1 nM.

B14: Anti-PD-1/IL-2 fusion protein A1 (Fc fusion)
chain 1: QVQLLESGGGLVKPGGSLRLSCAASGRTYAMGWFRRAPGKESEFVAEIRWSSTFTDYADSVKGRFTISRDNAENSAYLQMNSLRAEDTAVYHCAAQTSQRGTLYDSYGQGTQVTVSSESKYGPPCPPCPAPEFLGGPSVFLFPPKPKDTLMISRTPEVTCVVVDVSQEDPEVQFNWYVDGVEVHNAKTKPREEQFNSTYRVVSVLTVLHQDWLNGKEYKCKVSNKGLPSSIEKTISKAKGQPREPQVCTLPPSQEEMTKNQVSLSCAVKGFYPSDIAVEWESNGQPENNYKTTPPVLDSDGSFFLVSRLTVDKSRWQEGNVFSCSVMHEALHNHYTQKSLSLSLGAGGGGSGGGGSGGGGSAPASSSTKKTQLQLEHLSLDLQMILNGIQSMEIDATTFKFYMPKKATELKHLQCLEEELKPLEEVLNLAQSKNFHLRPRDLISNINVIVLELKGSETTFMCEYADETATIVEFLNRWITFSESIISTLT
chain 2: QVQLLESGGGLVKPGGSLRLSCAASGRTYAMGWFRRAPGKESEFVAEIRWSSTFTDYADSVKGRFTISRDNAENSAYLQMNSLRAEDTAVYHCAAQTSQRGTLYDSYGQGTQVTVSSESKYGPPCPPCPAPEFLGGPSVFLFPPKPKDTLMISRTPEVTCVVVDVSQEDPEVQFNWYVDGVEVHNAKTKPREEQFNSTYRVVSVLTVLHQDWLNGKEYKCKVSNKGLPSSIEKTISKAKGQPREPQVYTLPPCQEEMTKNQVSLWCLVKGFYPSDIAVEWESNGQPENNYKTTPPVLDSDGSFFLYSRLTVDKSRWQEGNVFSCSVMHEALHNHYTQKSLSLSLGK
notes: The two chains form a knobs-into-holes heterodimer
As for B14, the dissociation constant (Kd) was 5 nM with His-tagged human PD-1 and 12 nM in assay [3]. Moreover, the binding result in assay [2] was “no binding”.
